Test system: peptide library, one residue held at a place counted from the S/T acceptor
Experiment: relative phosphorylation of the sub-library (ratio to the mean residue at this position); higher = residue favoured
Settings: human
Method in brief: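 In 384-well plates, purified recombinant kinases (human or orthologue constructs) were incubated for 90 min under kinase-specific conditions with 50 μM biotinylated degenerate peptide sub-libraries and 50 μM ATP spiked with γ-32P-ATP. Each sub-library fixed a single residue at one position around a central Ser/Thr. Relative sub-library phosphorylation, measured by phosphorimaging and densitometry of streptavidin membrane spots, is given as a ratio to the mean residue at that position.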

MAP4K1, construct: Full length, sequence (Q92918 whole entry, looked up): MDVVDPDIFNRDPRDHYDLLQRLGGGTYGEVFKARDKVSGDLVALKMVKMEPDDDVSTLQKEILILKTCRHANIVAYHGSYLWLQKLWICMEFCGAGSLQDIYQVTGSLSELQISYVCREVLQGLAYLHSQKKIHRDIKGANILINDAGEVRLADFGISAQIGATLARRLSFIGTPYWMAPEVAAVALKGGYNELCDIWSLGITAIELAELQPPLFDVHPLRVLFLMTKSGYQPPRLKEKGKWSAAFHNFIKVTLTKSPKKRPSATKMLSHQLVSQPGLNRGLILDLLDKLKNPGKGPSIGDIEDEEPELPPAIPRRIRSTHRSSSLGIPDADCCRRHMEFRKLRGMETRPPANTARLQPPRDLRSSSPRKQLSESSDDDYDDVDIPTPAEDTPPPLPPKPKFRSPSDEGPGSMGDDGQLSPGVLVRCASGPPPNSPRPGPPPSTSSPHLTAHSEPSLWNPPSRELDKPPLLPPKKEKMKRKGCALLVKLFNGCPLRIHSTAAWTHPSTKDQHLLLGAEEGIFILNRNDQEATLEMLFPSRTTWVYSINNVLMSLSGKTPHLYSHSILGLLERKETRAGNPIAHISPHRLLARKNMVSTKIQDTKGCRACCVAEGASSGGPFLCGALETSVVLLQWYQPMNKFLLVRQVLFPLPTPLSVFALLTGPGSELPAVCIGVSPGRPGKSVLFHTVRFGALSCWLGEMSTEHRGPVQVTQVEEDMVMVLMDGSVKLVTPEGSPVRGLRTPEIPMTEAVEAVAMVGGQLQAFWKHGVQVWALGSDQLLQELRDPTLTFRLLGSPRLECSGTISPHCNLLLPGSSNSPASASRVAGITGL
MAPK1, construct: Full length, sequence (P28482 whole entry, looked up): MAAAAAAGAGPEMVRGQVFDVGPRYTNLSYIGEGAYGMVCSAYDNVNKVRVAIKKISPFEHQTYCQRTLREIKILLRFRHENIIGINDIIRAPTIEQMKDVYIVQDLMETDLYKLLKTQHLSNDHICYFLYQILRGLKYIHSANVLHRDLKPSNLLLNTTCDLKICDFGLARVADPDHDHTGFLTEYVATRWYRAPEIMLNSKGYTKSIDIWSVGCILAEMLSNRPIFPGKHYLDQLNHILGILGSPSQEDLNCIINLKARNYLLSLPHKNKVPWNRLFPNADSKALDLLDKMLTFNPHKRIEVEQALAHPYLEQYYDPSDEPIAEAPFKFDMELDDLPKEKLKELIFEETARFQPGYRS
MAPK11, construct: Full length, sequence (Q15759 whole entry, looked up): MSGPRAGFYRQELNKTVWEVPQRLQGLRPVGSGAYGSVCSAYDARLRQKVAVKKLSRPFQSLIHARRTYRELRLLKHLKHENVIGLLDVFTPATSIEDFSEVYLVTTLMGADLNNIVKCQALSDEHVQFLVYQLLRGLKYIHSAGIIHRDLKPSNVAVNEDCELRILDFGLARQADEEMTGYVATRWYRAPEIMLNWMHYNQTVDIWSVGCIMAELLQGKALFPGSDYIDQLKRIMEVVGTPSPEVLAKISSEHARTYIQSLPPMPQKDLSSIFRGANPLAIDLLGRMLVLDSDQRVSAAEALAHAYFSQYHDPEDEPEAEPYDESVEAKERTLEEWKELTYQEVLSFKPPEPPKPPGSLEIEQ

MAP4K1, construct: Full length (from UniProt Q92918)
relative phosphorylation
Settings	at +1	at +2	at +3	at +4	at -1	at -2	at -3	at -4	at -5
A fixed	0.465	0.82	0.882	0.928	0.991	1.1	0.946	0.951	1.07
D fixed	0.192	0.786	0.471	0.756	0.585	0.362	0.52	0.653	0.679
E fixed	0.199	0.706	0.454	0.629	0.441	0.302	0.487	0.699	0.613
F fixed	1.23	0.581	0.893	0.879	0.987	1.36	0.908	1.14	1.11
G fixed	0.58	0.957	0.933	1.13	1.79	1.06	1.21	1.29	1.15
H fixed	0.575	1.13	1.04	1.08	1.37	1.36	1.3	1.08	1.07
I fixed	1.91	0.442	0.571	0.806	0.342	0.646	0.545	0.706	0.763
K fixed	0.56	2.51	1.8	1.65	1.24	1.11	1.93	1.26	1.49
L fixed	3.52	0.604	0.724	0.863	1.17	0.667	0.694	0.798	0.746
M fixed	2.94	0.695	0.763	0.861	1.26	0.794	0.823	0.896	0.934
N fixed	0.442	0.974	0.925	0.978	1.3	0.931	0.928	0.849	0.88
P fixed	0.396	1.17	1.13	1.02	0.534	0.62	0.766	0.955	1.09
Q fixed	0.5	0.869	0.837	0.958	0.745	0.679	0.904	0.888	0.83
R fixed	0.573	2.9	2.98	1.62	1.62	1.6	2.01	1.39	1.34
V fixed	0.584	0.521	0.654	0.815	0.438	0.798	0.634	0.828	0.895
W fixed	1.45	0.627	0.991	1.14	0.909	1.51	1.28	1.37	1.15
Y fixed	0.877	0.706	0.942	0.887	1.27	2.1	1.11	1.24	1.2
pThr fixed	1.32	1.33	1.14	0.786	0.699	1.1	1.22	1.25	1.32
pTyr fixed	0.373	0.593	0.669	0.602	0.86	0.653	0.977	0.948	1.04

MAPK1, construct: Full length (from UniProt P28482)
relative phosphorylation
Settings	at +1	at +2	at +3	at +4	at -1	at -2	at -3	at -4	at -5
A fixed	0.973	0.668	0.858	0.681	0.711	0.878	1	0.906	0.914
D fixed	0.121	0.537	0.684	0.75	0.577	0.465	1.09	1.21	1.23
E fixed	0.0909	0.28	0.721	0.679	0.447	0.486	1.19	1.28	0.955
F fixed	0.427	1.43	1.46	1.18	0.906	0.58	0.839	0.886	1.02
G fixed	0.756	1.02	0.866	0.753	0.711	0.513	1.06	1.02	1.02
H fixed	0.474	1.66	1.37	1.17	1.23	0.622	1.02	1.06	1.21
I fixed	0.235	0.91	1.05	1.15	0.727	1.49	0.814	1.08	0.752
K fixed	0.472	1.6	0.821	1.55	1.59	0.547	0.723	1.01	1.07
L fixed	0.426	1.26	1.15	1	1.43	1.87	0.915	0.817	0.912
M fixed	0.4	1.16	1.13	1.11	1.35	1.35	1.07	0.993	0.812
N fixed	0.216	1.06	0.676	0.933	0.86	0.776	1.11	1.02	1.07
P fixed	10.5	0.399	1.05	0.748	0.916	3.03	1.48	0.895	0.946
Q fixed	0.289	0.785	0.682	0.96	1.25	1.1	1.15	1.09	1.03
R fixed	0.442	1.67	0.931	1.07	1.76	0.901	1.11	1.11	1.18
V fixed	0.256	0.8	0.799	0.853	0.669	1.34	0.79	0.643	0.689
W fixed	0.453	0.885	1.41	1.3	0.828	0.512	0.807	1.04	1.05
Y fixed	0.439	0.869	1.35	1.1	1.04	0.549	0.838	0.945	1.15
pThr fixed	0.432	0.683	0.642	0.847	0.381	1.05	1.2	1.18	1.16
pTyr fixed	0.517	0.404	1.01	0.861	0.351	0.691	1.31	0.918	1.18

MAPK11, construct: Full length (from UniProt Q15759)
relative phosphorylation
Settings	at +1	at +2	at +3	at +4	at -1	at -2	at -3	at -4	at -5
A fixed	1.65	1.14	1.35	0.935	1.22	0.953	1.26	1.14	1.12
D fixed	0.136	0.985	0.947	0.919	0.745	0.501	0.917	1.25	1.06
E fixed	0.12	0.81	0.98	0.818	0.765	0.338	1.03	1.13	0.921
F fixed	0.268	0.828	0.913	1.27	0.852	0.614	0.708	0.766	0.944
G fixed	0.841	1.14	1.08	1.19	1.24	0.73	1.53	1.21	1.22
H fixed	0.227	1.1	0.959	1.15	1.21	0.572	0.902	0.941	1.12
I fixed	0.304	1.15	1.11	1.05	0.676	1.16	1.04	0.885	0.88
K fixed	0.209	1.12	0.583	0.818	0.842	0.461	0.722	0.961	0.921
L fixed	0.337	1.04	1.01	1.14	1.37	1.46	1.09	0.982	1.08
M fixed	0.26	0.951	0.852	1.08	1.67	1.22	0.988	1.06	0.941
N fixed	0.141	0.874	0.632	0.764	0.705	0.585	0.886	0.952	0.956
P fixed	11.4	0.762	1.95	1.01	1.39	5.14	1.61	1.29	1.37
Q fixed	0.185	0.942	0.71	0.859	1.26	0.633	1.05	0.94	0.902
R fixed	0.206	1.08	0.676	0.871	0.847	0.505	0.835	0.823	0.834
V fixed	0.289	1.24	1.25	0.995	0.749	1.16	0.954	0.896	0.839
W fixed	0.206	0.792	0.975	1.04	0.618	0.437	0.723	0.946	0.913
Y fixed	0.2	1.05	1.02	1.1	0.833	0.53	0.748	0.83	0.981
pThr fixed	0.405	1.32	1.18	0.795	0.364	0.617	1.1	1.16	1.15
pTyr fixed	0.589	0.741	0.996	0.757	0.653	0.396	0.932	1.04	1.05

From the supplement of paper PMC9876800
